# Test results taken from the supplement of paper PMC10598134.
# ± gives the standard deviation.
# Test: collision cross section of modified peptide (TIMS, N2, iRT-aligned); higher = larger / more extended gas-phase ion
# Method in brief: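 Collision cross section was derived from the Mason-Schamp equation. Each value averages 1–3 technical replicates of the most abundant feature per charge state, measured on a timsTOF Pro/HT in dda-PASEF mode (nitrogen, ~2.4 mbar) after a 120-min nanoflow C18 gradient at 60 °C. Synthetic peptide pools (~100 fmol/µL in 2% acetonitrile/0.1% formic acid, iRT standard spiked 1:40) were identified with MaxQuant, and 1/K0 was calibrated with three reference ions and aligned run-wise to the median iRT peptide deviation.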
# [1] = charge state: 2, modification: Butyryl
# [2] = charge state: 3, modification: Butyryl
# [3] = charge state: 3, modification: Crotonyl
# [4] = charge state: 3, modification: Dimethyl (K)
# [5] = charge state: 2, modification: Formyl
# [6] = charge state: 3, modification: Formyl
# [7] = charge state: 2, modification: Glutarylation
# [8] = charge state: 3, modification: Glutarylation
# [9] = charge state: 2, modification: GlyGly (K)
# [10] = charge state: 3, modification: GlyGly (K)
# [11] = charge state: 2, modification: Malonyl
# [12] = charge state: 3, modification: Malonyl
# [13] = charge state: 3, modification: Methyl (K)
# [14] = charge state: 2, modification: Succinyl
# [15] = charge state: 3, modification: Succinyl
# [16] = charge state: 3, modification: Trimethyl (K)
# [17] = charge state: 2, modification: hydroxyisobutyryl
# [18] = charge state: 3, modification: hydroxyisobutyryl
sequence,measurement,setting,value
TEVLSPNSKVESK [_TEVLSPNSK(Biotin)VESK_],collision cross section,"charge state: 2, modification: Biotin",425.18 ± 3.5 Å²
same,collision cross section,"charge state: 3, modification: Biotin",487.32 ± 1.7 Å²
TEVLSPNSKVESK [_TEVLSPNSK(Butyryl)VESK_],collision cross section,[1],418.57 ± 0.77 Å²
same,collision cross section,[2],463.23 ± 20 Å²
TEVLSPNSKVESK [_TEVLSPNSK(Crotonyl)VESK_],collision cross section,"charge state: 2, modification: Crotonyl",417.97 ± 0.81 Å²
same,collision cross section,[3],452.38 ± 1.3 Å²
TEVLSPNSKVESK [_TEVLSPNSK(Dimethyl (K))VESK_],collision cross section,"charge state: 2, modification: Dimethyl (K)",400.19 ± 1.6 Å²
same,collision cross section,[4],477.45 ± 2.4 Å²
TEVLSPNSKVESK [_TEVLSPNSK(Formyl)VESK_],collision cross section,[5],404.6 ± 5.2 Å²
same,collision cross section,[6],443.86 ± 4.1 Å²
TEVLSPNSKVESK [_TEVLSPNSK(Gluratylation)VESK_],collision cross section,[7],408.15 ± 0.5 Å²
same,collision cross section,[8],453.95 ± 1.7 Å²
TEVLSPNSKVESK [_TEVLSPNSK(GlyGly (K))VESK_],collision cross section,[9],404.73 ± 5.7 Å²
same,collision cross section,[10],492.13 ± 0.88 Å²
TEVLSPNSKVESK [_TEVLSPNSK(Malonyl)VESK_],collision cross section,[11],400.58 ± 1.9 Å²
same,collision cross section,[12],444.22 ± 3.4 Å²
TEVLSPNSKVESK [_TEVLSPNSK(Methyl (K))VESK_],collision cross section,"charge state: 2, modification: Methyl (K)",412.51 ± 2.6 Å²
same,collision cross section,[13],437.62 ± 4.3 Å²
TEVLSPNSKVESK [_TEVLSPNSK(Propionyl)VESK_],collision cross section,"charge state: 2, modification: Propionyl",413.62 ± 0.97 Å²
same,collision cross section,"charge state: 3, modification: Propionyl",453.73 Å²
TEVLSPNSKVESK [_TEVLSPNSK(Succinyl)VESK_],collision cross section,[14],402.26 ± 0.79 Å²
same,collision cross section,[15],458.68 ± 13 Å²
TEVLSPNSKVESK [_TEVLSPNSK(Trimethyl (K))VESK_],collision cross section,"charge state: 2, modification: Trimethyl (K)",405.78 ± 0.61 Å²
same,collision cross section,[16],479.92 ± 1.6 Å²
TEVLSPNSKVESK [_TEVLSPNSK(hydroxyisobutyryl)VESK_],collision cross section,[17],419.54 ± 0.31 Å²
same,collision cross section,[18],455.3 ± 1.9 Å²
TEVNSGFFYK [_TEVNSGFFY(Nitro (Y))K_],collision cross section,"charge state: 2, modification: Nitro (Y)",367.43 ± 0.8 Å²
TEVNSGFFYK [_TEVNSGFFY(Phospho (Y))K_],collision cross section,"charge state: 2, modification: Phospho (Y)",373.38 ± 0.68 Å²
TFGKAAGPSLSHTSGGTQSK [_TFGK(Acetyl (K))AAGPSLSHTSGGTQSK_],collision cross section,"charge state: 2, modification: Acetyl (K)",486.77 ± 4.6 Å²
same,collision cross section,"charge state: 3, modification: Acetyl (K)",516.14 ± 6 Å²
TFGKAAGPSLSHTSGGTQSK [_TFGK(Butyryl)AAGPSLSHTSGGTQSK_],collision cross section,[1],496.92 ± 1.5 Å²
same,collision cross section,[2],514.77 ± 3.5 Å²
TFGKAAGPSLSHTSGGTQSK [_TFGK(Crotonyl)AAGPSLSHTSGGTQSK_],collision cross section,[3],515.47 ± 1.3 Å²
TFGKAAGPSLSHTSGGTQSK [_TFGK(Dimethyl (K))AAGPSLSHTSGGTQSK_],collision cross section,[4],547.87 ± 1.3 Å²
TFGKAAGPSLSHTSGGTQSK [_TFGK(Formyl)AAGPSLSHTSGGTQSK_],collision cross section,[5],488.52 ± 0.72 Å²
same,collision cross section,[6],508.22 ± 1.5 Å²
TFGKAAGPSLSHTSGGTQSK [_TFGK(Gluratylation)AAGPSLSHTSGGTQSK_],collision cross section,[8],518.15 ± 2 Å²
TFGKAAGPSLSHTSGGTQSK [_TFGK(GlyGly (K))AAGPSLSHTSGGTQSK_],collision cross section,[10],526.57 ± 0.59 Å²
TFGKAAGPSLSHTSGGTQSK [_TFGK(Malonyl)AAGPSLSHTSGGTQSK_],collision cross section,[12],514.27 ± 0.92 Å²
TFGKAAGPSLSHTSGGTQSK [_TFGK(Methyl (K))AAGPSLSHTSGGTQSK_],collision cross section,[13],525.9 ± 1.3 Å²
TFGKAAGPSLSHTSGGTQSK [_TFGK(Succinyl)AAGPSLSHTSGGTQSK_],collision cross section,[14],476.24 Å²
same,collision cross section,[15],513.01 ± 0.73 Å²
TFGKAAGPSLSHTSGGTQSK [_TFGK(Trimethyl (K))AAGPSLSHTSGGTQSK_],collision cross section,[16],559.57 ± 0.94 Å²
TFGKAAGPSLSHTSGGTQSK [_TFGK(hydroxyisobutyryl)AAGPSLSHTSGGTQSK_],collision cross section,[17],498.68 ± 0.33 Å²
same,collision cross section,[18],512.39 ± 2.8 Å²
TGGTQTDLFTCGKCK [_TGGTQTDLFTCGK(Butyryl)CK_],collision cross section,[1],444.65 Å²
TGGTQTDLFTCGKCK [_TGGTQTDLFTCGK(Gluratylation)CK_],collision cross section,[7],442.58 Å²
TGGTQTDLFTCGKCK [_TGGTQTDLFTCGK(GlyGly (K))CK_],collision cross section,[9],442.06 Å²
same,collision cross section,[10],489.77 ± 1.1 Å²
TGGTQTDLFTCGKCK [_TGGTQTDLFTCGK(Malonyl)CK_],collision cross section,[11],436.14 ± 0.67 Å²
